Test results published in PMC2193072 (The Journal of Experimental Medicine, 1999).
Read-outs that look alike come from different tables or passages of the source. No end group written: not given here.

How the values were obtained:
[1] = target: soluble I-A^g7 (I-Aα–Fos / I-Aβ–Jun heterodimer) (mouse (NOD) | not stated); test: peptide dissociation assay
[2] = target: soluble I-A^g7 (I-Aα–Fos / I-Aβ–Jun heterodimer) (mouse (NOD) | not stated); test: peptide dissociation assay; remark: listed apart in the source
[3] = target: soluble I-A^g7 (I-Aα–Fos / I-Aβ–Jun heterodimer) (mouse (NOD) | not stated); test: antibody-capture peptide binding assay with europium-streptavidin
[4] = system: I-A^g7; assay type: binding, NOD mice; details: pH 5, competitor 8 nM–25 μM vs biotinylated transferrin peptide (1 μM)
[5] = system: I-A^g7; assay type: binding, NOD mice; details: biotinylated peptide, pH 5.0, 37°C
[6] = target: soluble I-A^g7 (I-Aα–Fos / I-Aβ–Jun heterodimer) (mouse (NOD) | not stated); test: antibody-capture peptide binding assay with europium-streptavidin; remark: listed apart in the source

Row | Molecule | IC50 [3] [µM] | IC50 [6] [µM] | also measured
1 | Murine serum albumin (560–574) peptide, biotinylated | – | – | dissociation time (t1/2) [1]: > 72 h; dissociation time (t1/2) [2]: > 72 h
2 | EEVDMTPADALDDFD [HSV-2 VP16 (430–444)] | – | – | Binding to I-A^g7 in competition assay (in words) [4]: competed for binding of the biotinylated transferrin peptide at high peptide concentrations; Binding to I-A^g7 in direct binding assay (in words), pH 5.0 [5]: little binding
3 | Murine CLIP (86–100) peptide, biotinylated | – | – | dissociation time (t1/2) [1]: 1 h
4 | Murine transferrin (55–68) peptide, biotinylated | – | – | dissociation time (t1/2) [1]: 45 h; dissociation time (t1/2) [2]: > 72 h
5 | PVSQMRMATPLLYRP [Murine CLIP analogue with Y at position 98 (P9), unlabeled] | > 125 | 60 | –
6 | GCALLRCIPALDSLTPANED (cysteine pairing not given here; also: biotinylated, position not given here) [Human HSP60 (441–460) peptide, biotinylated] | – | – | dissociation time (t1/2) [1]: 14 h; dissociation time (t1/2) [2]: 25 h
7 | PVSQMRMATPLLDRP (also: biotinylated, position not given here) [Murine CLIP 98D analogue, biotinylated] | – | – | dissociation time (t1/2) [1]: 23 h; dissociation time (t1/2) [2]: 70 h
8 | PVSQMRMATPLLIRP [Murine CLIP analogue with I at position 98 (P9), unlabeled] | > 125 | > 125 | –
9 | PVSQMRMATPLLPRP [Murine CLIP analogue with P at position 98 (P9), unlabeled] | > 125 | > 125 | –
10 | PVSQMRMATPLLRRP [Murine CLIP analogue with R at position 98 (P9), unlabeled] | > 125 | > 125 | –
11 | PVSQMRMATPLLTRP [Murine CLIP analogue with T at position 98 (P9), unlabeled] | > 125 | 40 | –
12 | PVSQMRMATPLLNRP [Murine CLIP analogue with N at position 98 (P9), unlabeled] | 80 | 125 | –
13 | PVSQMRMATPLLKRP [Murine CLIP analogue with K at position 98 (P9), unlabeled] | > 125 | > 125 | –

Further lines, with some results ahead:

Row | IC50 [3] [µM] | IC50 [6] [µM] | Molecule | also measured
14 | 50 | – | Murine CLIP analogue with V at position 98 (P9), unlabeled (from UniProt P04441 86-100) (peptide) | –
15 | 50 | > 125 | Murine CLIP (86–100) peptide, unlabeled | –
16 | 80 | 50 | PVSQMRMATPLLFRP [Murine CLIP analogue with F at position 98 (P9), unlabeled] | –
17 | 2 | 15 | PVSQMRMATPLLARP [Murine CLIP analogue with A at position 98 (P9), unlabeled] | –
18 | 40 | – | PVSQMRMATPLLSRP [Murine CLIP analogue with S at position 98 (P9), unlabeled] | –
19 | 40 | > 125 | PVSQMRMATPLLLRP [Murine CLIP analogue with L at position 98 (P9), unlabeled] | –
20 | 80 | > 125 | PVSQMRMATPLLWRP [Murine CLIP analogue with W at position 98 (P9), unlabeled] | –
21 | 10 | > 125 | PVSQMRMATPLLGRP [Murine CLIP analogue with G at position 98 (P9), unlabeled] | –
22 | 40 | – | PVSQMRMATPLLCRP [Murine CLIP analogue with C at position 98 (P9), unlabeled] | –
23 | 4 | > 125 | PVSQMRMATPLLHRP [Murine CLIP analogue with H at position 98 (P9), unlabeled] | –
24 | 25 | > 125 | PVSQMRMATPLLQRP [Murine CLIP analogue with Q at position 98 (P9), unlabeled] | –
